Data taken from PMC3281842, “Crystal Structure of TDRD3 and Methyl-Arginine Binding Characterization of TDRD3, SMN and SPF30” (PLoS ONE, 2012).

What was measured:
[1] = target: PIWIL1-R4me2s (Homo sapiens) (UniProt Q96J94); conditions: cited from earlier work
[2] = target: PIWIL1-R4me1 (Homo sapiens) (UniProt Q96J94); conditions: cited from earlier work
[3] = target: PIWIL1-R4me2a (Homo sapiens) (UniProt Q96J94); conditions: cited from earlier work
H3R17me2a = experiment: ITC; 20 mM Tris pH 8.0, 200 mM NaCl; 25°C; one-site binding model
H3R2me2a = experiment: fluorescence polarisation; fluorescein-labeled peptides; 20 mM Tris pH 7.5, 50 mM NaCl, 1 mM DTT, 0.01% Triton X-100; 25°C; one-site binding model; Kd the average of three independent measurements
H3R2me2s = experiment: as above

Chain of SND1 650-910 (Q7KZF4 650-910): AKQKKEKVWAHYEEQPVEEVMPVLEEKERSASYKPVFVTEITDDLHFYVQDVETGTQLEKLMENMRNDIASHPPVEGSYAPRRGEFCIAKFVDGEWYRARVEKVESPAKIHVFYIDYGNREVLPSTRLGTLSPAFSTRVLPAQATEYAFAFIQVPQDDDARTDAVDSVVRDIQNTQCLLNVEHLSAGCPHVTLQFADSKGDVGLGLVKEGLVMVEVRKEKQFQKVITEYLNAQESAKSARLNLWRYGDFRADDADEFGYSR

Kd (H3R17me2a)	Kd (H3R2me2a)	Kd (H3R2me2s)	Substance	Kd [1]	Kd [2]	Kd [3]
			SND1 650-910 (from UniProt Q7KZF4)	10 µM	19 µM	42 µM
> 1000 µM	> 500 µM	> 500 µM	TDRD3 (aa 520–633) (from UniProt Q9H7E2 520-633) (domain or fragment)			
